# From US20240084003A1 (SIMCERE ZAIMING PHARMACEUTICAL, published 2024)
# T1: murine CD22 protein (ACROBiosystems, SI2-M52Ha) (murine, UniProt P35329 22-708)
# T1 construct: extracellular domain; also called murine CD22-ECD; murine CD22-ECD-His
# T1 sequence (looked up): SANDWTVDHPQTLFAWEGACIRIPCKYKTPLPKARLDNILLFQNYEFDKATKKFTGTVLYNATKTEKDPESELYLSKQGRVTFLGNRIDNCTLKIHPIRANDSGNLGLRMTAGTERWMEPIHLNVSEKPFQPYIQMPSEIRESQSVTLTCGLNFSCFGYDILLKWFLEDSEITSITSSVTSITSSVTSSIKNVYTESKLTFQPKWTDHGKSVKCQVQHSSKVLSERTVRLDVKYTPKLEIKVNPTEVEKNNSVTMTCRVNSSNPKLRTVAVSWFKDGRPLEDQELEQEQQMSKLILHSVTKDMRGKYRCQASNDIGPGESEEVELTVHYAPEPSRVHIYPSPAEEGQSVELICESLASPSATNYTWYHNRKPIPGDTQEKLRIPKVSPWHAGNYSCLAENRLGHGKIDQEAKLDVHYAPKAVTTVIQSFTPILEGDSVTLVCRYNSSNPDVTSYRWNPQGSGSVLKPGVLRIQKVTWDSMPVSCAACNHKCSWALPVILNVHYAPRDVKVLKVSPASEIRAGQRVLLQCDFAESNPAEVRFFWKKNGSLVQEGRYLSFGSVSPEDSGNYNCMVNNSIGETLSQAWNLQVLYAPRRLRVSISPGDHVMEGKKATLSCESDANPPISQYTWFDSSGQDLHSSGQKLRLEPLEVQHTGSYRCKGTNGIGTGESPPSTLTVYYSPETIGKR
# T2: human CD22, full length, on CHO-K1-human CD22 2C4 cells (human, UniProt P20273 20-847)
# T2 construct: Full-length human CD22 (NCBI NP_001762.2) stably transfected into CHO-K1
# T2 sequence: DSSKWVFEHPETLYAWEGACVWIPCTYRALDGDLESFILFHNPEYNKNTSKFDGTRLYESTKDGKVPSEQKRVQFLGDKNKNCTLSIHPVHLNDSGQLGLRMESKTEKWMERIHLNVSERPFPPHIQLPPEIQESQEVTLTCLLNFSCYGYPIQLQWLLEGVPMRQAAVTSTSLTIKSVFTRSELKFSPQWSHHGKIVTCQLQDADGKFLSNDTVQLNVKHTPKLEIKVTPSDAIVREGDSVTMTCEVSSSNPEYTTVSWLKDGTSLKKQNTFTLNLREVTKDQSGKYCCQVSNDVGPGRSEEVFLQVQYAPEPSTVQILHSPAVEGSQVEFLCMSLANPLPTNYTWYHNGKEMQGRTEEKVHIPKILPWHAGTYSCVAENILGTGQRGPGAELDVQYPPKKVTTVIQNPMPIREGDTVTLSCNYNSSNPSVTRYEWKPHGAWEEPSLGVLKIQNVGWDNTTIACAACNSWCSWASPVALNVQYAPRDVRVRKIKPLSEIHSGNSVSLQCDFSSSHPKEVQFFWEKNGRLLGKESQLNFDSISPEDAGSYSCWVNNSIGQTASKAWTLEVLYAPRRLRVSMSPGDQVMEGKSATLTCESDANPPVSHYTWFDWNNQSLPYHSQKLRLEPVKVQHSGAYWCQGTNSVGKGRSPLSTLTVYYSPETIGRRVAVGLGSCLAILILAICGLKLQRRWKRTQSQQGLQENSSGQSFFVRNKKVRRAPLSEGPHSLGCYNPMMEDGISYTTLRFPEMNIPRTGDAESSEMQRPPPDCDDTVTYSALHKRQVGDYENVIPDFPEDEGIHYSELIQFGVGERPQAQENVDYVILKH
# T3: human CD22, endogenous on Raji cells (human, UniProt P20273 20-847)
# T3 construct: whole, on cells; Endogenous protein of the Raji cell line
# T3 sequence (looked up): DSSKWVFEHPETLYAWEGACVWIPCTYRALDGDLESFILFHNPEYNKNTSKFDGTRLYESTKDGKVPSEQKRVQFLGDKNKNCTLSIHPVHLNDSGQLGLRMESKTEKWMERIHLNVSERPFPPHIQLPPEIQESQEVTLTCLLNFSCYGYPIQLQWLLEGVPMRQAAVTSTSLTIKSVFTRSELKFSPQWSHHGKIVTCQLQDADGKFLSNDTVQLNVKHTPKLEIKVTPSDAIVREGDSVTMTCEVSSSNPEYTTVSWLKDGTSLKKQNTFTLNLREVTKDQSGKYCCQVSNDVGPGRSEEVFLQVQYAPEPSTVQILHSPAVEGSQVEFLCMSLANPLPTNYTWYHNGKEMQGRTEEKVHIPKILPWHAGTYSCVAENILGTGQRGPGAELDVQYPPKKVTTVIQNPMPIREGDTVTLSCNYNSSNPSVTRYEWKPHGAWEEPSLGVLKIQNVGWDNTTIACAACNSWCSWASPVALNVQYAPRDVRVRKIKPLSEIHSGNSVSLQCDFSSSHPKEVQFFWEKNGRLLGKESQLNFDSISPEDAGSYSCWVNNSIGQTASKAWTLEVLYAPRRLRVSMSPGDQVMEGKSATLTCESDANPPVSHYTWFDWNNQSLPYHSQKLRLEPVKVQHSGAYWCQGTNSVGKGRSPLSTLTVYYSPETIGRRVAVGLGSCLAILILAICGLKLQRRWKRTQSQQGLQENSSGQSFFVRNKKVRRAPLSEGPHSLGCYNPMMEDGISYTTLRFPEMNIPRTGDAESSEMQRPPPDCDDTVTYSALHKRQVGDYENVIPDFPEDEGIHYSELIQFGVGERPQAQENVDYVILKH
# Columns and labels:
# [1] = target: T1, murine CD22 protein (ACROBiosystems, …); experiment: ELISA, coated murine CD22, 0.00001 nM Ab
# Procedure, shortened: (§1)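 First, CD22 (2 μg/mL, PBS) was coated at 4° C overnight. Second, wells were blocked with PBS containing 2% BSA for 2 h at room temperature. Third, antibody and then HRP secondary were each incubated 2 h at 37° C. Finally, TMB colour was stopped with HCl.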
# [2] = target: T1, murine CD22 protein (ACROBiosystems, …); experiment: ELISA, coated murine CD22, 0.001 nM Ab
# Procedure, shortened: as §1
# [3] = target: T2, human CD22, full length, on …; experiment: FACS, CHO-K1-human CD22 2C4 cells
# Excerpt: (§2) The required cells were scale-up cultured in a T-75 cell culture flask to the logarithmic growth phase. For the adherent cell CHO-K1, the medium was aspirated, the cells were washed 2 times with PBS buffer, and then digested with trypsin. After the digestion was terminated, the cells were washed 2 times with PBS buffer. For suspension cell Raji, the medium supernatant was directly centrifuged and discarded, and the cell pellet was washed 2 times with PBS. After counting the cells in the previous step, the cell pellet was resuspended with [PBS+2% (w/w) BSA] blocking solution to 2×10⁶ cells/ml, and added to a 96-well FACS reaction plate at 50 μl/well, and then the chimeric antibody test sample was added at 50 μl/well, and incubated on ice for 2 hours. The mixture was centrifuged and washed 3 times with PBS buffer, Alexa Flour 488-labeled secondary antibody (purchased from Invitrogen, catalog number: A-11013) was added at 50 μl/well, and incubated on ice for 1 hour. The obtained mixture was centrifuged and washed 5 times with PBS, and FACS (FACS Canto™, purchased from BD Company) was used for detection and result analysis. Data analysis was performed by software (CellQuest) to obtain the mean fluorescence density (MFI)of the cells. And then software (GraphPad Prism8) was used for analysis, data fitting, and EC50 value calculation. […] The same method was used to detect the binding of the chimeric antibodies to endogenous CD22-negative cell MoLT4 cells (purchased from ATCC, CRL-1582) and CHO-K1 cells.
# [4] = target: T1, murine CD22 protein (ACROBiosystems, …); experiment: ELISA, coated murine CD22, 10 nM Ab
# Procedure, shortened: as §1
# [5] = target: T1, murine CD22 protein (ACROBiosystems, …); experiment: ELISA, coated murine CD22, 0.01 nM Ab
# Procedure, shortened: as §1
# [6] = target: T1, murine CD22 protein (ACROBiosystems, …); experiment: ELISA, coated murine CD22, 0.1 nM Ab
# Procedure, shortened: as §1
# [7] = target: T1, murine CD22 protein (ACROBiosystems, …); experiment: ELISA, coated murine CD22, 100 nM Ab
# Procedure, shortened: as §1
# [8] = target: T1, murine CD22 protein (ACROBiosystems, …); experiment: ELISA, coated murine CD22, 0.0001 nM Ab
# Procedure, shortened: as §1
# [9] = target: T3, human CD22, endogenous on Raji cells; experiment: FACS, Raji cells
# Excerpt: as §2
Binder,OD450 [1],OD450 [2],EC50 [3],Maximum mean fluorescence intensity [3],OD450 [4],OD450 [5],OD450 [6],OD450 [7],OD450 [8],EC50 [9],Maximum mean fluorescence intensity [9]
"F2.70.2 human-murine chimeric antibody (antibody, human IgG1, lambda, V domains shown, Chimeric, human IgG1 / lambda) VH: EVQLVESGGGLVKPGGSLKLSCAASGFTFSDYGMNWFRQAPEKGLEWVAYISRGSHTIYYADTVKGRFTISRDNAKNTLFLQMTSLRSNDTAMYYCVRMAGYYAMDYWGQGTSVTVSS VL: QLVLTQSSSASFSLGASAKLTCTLSSQHSSYIIEWYQQQPLKPPKYVMELKKDGSHSTGDGIPDRFSGSSSGADRYLSISNIQPEDEAIYICGVGDTIKEQFVYVFGGGTKVTVLG",0.06 OD450,0.06 OD450,0.76 nM,39000 MFI,0.07 OD450,0.06 OD450,0.06 OD450,0.1 OD450,0.06 OD450,0.35 nM,16600 MFI
"F2.180.16 human-murine chimeric antibody (antibody, human IgG1, lambda, V domains shown, Chimeric, human IgG1 / lambda) VH: EVKLVESGGGLVLPGGSLKISCAASGFTFSDYYMYWIRQTPDKRLEWVAYISNTGYSTFYPDSVKGRFTVSRDNAKNTLYLQMSRLQSEDTAMYYCARHGILYAMDYWGQGTSVTVSS VL: QPVLTQSSSASFSLGASAKLTCTLSSQYSTYTIGWYQQQPLKPPKYVMELKHDGSRHTGDGIPDRFSGSSSGADRYLSISNIQPEDEATYICGVGDTIKEQFMYVFGGGTKVTVLG",0.06 OD450,0.05 OD450,1.63 nM,34400 MFI,0.06 OD450,0.05 OD450,0.05 OD450,0.05 OD450,0.07 OD450,0.88 nM,15700 MFI
"F2.151.13 human-murine chimeric antibody (antibody, human IgG1, lambda, V domains shown, Chimeric, human IgG1 / lambda) VH: QVHLQQPGTELMKPGASVKLSCKATGYTFRDYWLEWVKQRPGHGLEWIGEILPGSGNAYYNEKFKGKATFTADTSSNTAYMQLSSLTTEDSAIYYCARVYSNWYFDAWGKGTTVTVSS VL: QAVVTQESALTTSPGETVTLTCRSSTGAVTTSNYANWVQEKPDHLFTGLIGGTNNQAPGVPARFSGSLIGDKAALTISGAQTEDEAIYFCALWFSNHWVFGGGTKLTVLG",0.07 OD450,0.07 OD450,3.28 nM,37000 MFI,0.08 OD450,0.07 OD450,0.07 OD450,0.09 OD450,0.07 OD450,1.26 nM,18800 MFI
"F2.121.9 human-murine chimeric antibody (antibody, human IgG1, lambda, V domains shown, Chimeric, human IgG1 / lambda) VH: EVQLVESGGGLVKPGGSLKLSCAASGFTFSDYVMSWIRQTPEKRLEWVATISDAGSYTFYPDNLKGRFTISRDNAKNNLYLQMNHLTSEDTAFYYCAIIYFGNYGGYWGQGTLVTVSV VL: QAVVTQESALTTSPGGTVVLTCRSNTGAVTTSNYANWVQEKPDHLFTGLIGGTSNRAPGVPVRFSGSLIGDKAALTITGAQTEDDAMYFCALWYSTHWVFGGGTKLTVLG",0.06 OD450,0.06 OD450,1.09 nM,39700 MFI,0.06 OD450,0.05 OD450,0.05 OD450,0.06 OD450,0.06 OD450,0.86 nM,18900 MFI

# Continued, values first:
OD450 [1],OD450 [2],EC50 [3],Maximum mean fluorescence intensity [3],OD450 [4],OD450 [5],OD450 [6],OD450 [7],OD450 [8],EC50 [9],Maximum mean fluorescence intensity [9],Binder
0.06 OD450,0.05 OD450,1.23 nM,40300 MFI,0.06 OD450,0.05 OD450,0.05 OD450,0.09 OD450,0.05 OD450,0.84 nM,18900 MFI,"F2.173.9 human-murine chimeric antibody (antibody, human IgG1, lambda, V domains shown, Chimeric, human IgG1 / lambda) VH: EVQLVESGGDLVKPGESLKLSCEASGFTFSNYAMSWVRQTPDRRLEWVATISSIGSFTYYSDSVKGRFTISRDNVKSTLHLQMNNLKSGDTAIYFCARLGVYFDSWGQGTTLTVSS VL: QLVLTQSSSASFSLGASAKLTCTLSSQHSTYTIEWYQQQPHKPPKFVMEIKKDGSHYTGDGIPDRFSGSSSGADRYLSISNIQPEDETIYICGVSDMIKDQFVYVFGGGTKVTVLG"
0.05 OD450,0.06 OD450,0.88 nM,40600 MFI,0.07 OD450,0.07 OD450,0.06 OD450,0.07 OD450,0.06 OD450,0.4 nM,16300 MFI,"F2.104.10 human-murine chimeric antibody (antibody, human IgG1, lambda, V domains shown, Chimeric, human IgG1 / lambda) VH: EVQLVESGGGFVKPGGSLKLSCAASGFTFSDYGMNWFRQAPEKGLEWVAYISRGSHTIYYADTVKGRFTISRDNAENTLFLQMTSLRSNDTAMYYCVRMAGYYAMDYWGQGTSLTVSS VL: QLVLTQSSSASFSLGASAKLTCTLSSQHSSYIIEWYQQQPLKPPKYVMEVKKDGSHSTGDGIPDRFSGSSSGADRYLSISNIQSEDEAIYICGVGDTIKEQFVYVFGGGTKVTVLG"
0.08 OD450,0.07 OD450,0.87 nM,41000 MFI,0.08 OD450,0.07 OD450,0.08 OD450,0.09 OD450,0.08 OD450,0.33 nM,16700 MFI,"F2.42.9 human-murine chimeric antibody (antibody, human IgG1, lambda, V domains shown, Chimeric, human IgG1 / lambda; VL tied by name) VH: QVTLKESGPGILQPSQTLSLTCSFSGFSLSTFDRGVGWIRQPSGKGLEWLAHIWWNDKKFYNPVLKSRLTISKDTSKNQVFLTIANVDSADTATYSCARIVWDKYYFDYWGQGIPLTVSS VL: QLVLTQSSSASFSLGASAKLTCTLSSQHSAYTIEWYQQQPLKPPKFVMDLKKDGSHSTGDGIPARFSGSSSGADRYLTISNIQPEDEAIYICGVGDTIKEQYVFGGGTKVTVLG"
